Earlier results on 1 substance are cited in publication PMC12475976.

The data set has as its target SREBF1 (Homo sapiens) (UniProt P36956).

Chain of SREBF1 (Homo sapiens) (P36956 whole entry): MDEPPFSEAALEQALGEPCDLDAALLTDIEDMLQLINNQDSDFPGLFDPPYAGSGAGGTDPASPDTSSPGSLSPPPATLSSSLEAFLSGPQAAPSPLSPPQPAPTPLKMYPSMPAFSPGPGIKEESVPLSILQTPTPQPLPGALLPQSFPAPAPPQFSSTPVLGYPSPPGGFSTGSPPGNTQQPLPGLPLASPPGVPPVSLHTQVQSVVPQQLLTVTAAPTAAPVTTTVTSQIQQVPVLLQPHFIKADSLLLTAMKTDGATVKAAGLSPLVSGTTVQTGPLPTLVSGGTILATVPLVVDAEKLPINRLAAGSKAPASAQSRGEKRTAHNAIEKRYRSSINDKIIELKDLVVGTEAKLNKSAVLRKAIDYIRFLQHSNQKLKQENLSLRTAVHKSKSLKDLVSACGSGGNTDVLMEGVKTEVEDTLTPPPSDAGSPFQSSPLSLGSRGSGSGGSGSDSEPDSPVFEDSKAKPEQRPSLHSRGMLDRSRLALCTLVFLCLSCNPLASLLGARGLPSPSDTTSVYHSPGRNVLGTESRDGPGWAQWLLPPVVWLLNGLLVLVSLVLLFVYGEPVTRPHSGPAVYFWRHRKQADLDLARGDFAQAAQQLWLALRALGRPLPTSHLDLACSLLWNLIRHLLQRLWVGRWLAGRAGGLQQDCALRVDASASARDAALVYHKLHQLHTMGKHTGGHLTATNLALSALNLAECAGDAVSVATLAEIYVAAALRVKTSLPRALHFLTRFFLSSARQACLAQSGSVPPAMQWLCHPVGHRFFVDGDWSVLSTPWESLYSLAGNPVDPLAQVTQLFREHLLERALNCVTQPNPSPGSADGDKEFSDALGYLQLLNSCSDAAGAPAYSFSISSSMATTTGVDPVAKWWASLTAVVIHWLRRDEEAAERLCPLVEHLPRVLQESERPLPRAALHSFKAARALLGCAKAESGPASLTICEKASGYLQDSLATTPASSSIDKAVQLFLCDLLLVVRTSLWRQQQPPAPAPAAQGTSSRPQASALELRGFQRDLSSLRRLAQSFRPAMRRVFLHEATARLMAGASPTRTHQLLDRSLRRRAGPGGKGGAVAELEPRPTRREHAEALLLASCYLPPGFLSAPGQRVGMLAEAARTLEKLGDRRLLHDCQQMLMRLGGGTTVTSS
Chain of Vav2 (P52735 whole entry): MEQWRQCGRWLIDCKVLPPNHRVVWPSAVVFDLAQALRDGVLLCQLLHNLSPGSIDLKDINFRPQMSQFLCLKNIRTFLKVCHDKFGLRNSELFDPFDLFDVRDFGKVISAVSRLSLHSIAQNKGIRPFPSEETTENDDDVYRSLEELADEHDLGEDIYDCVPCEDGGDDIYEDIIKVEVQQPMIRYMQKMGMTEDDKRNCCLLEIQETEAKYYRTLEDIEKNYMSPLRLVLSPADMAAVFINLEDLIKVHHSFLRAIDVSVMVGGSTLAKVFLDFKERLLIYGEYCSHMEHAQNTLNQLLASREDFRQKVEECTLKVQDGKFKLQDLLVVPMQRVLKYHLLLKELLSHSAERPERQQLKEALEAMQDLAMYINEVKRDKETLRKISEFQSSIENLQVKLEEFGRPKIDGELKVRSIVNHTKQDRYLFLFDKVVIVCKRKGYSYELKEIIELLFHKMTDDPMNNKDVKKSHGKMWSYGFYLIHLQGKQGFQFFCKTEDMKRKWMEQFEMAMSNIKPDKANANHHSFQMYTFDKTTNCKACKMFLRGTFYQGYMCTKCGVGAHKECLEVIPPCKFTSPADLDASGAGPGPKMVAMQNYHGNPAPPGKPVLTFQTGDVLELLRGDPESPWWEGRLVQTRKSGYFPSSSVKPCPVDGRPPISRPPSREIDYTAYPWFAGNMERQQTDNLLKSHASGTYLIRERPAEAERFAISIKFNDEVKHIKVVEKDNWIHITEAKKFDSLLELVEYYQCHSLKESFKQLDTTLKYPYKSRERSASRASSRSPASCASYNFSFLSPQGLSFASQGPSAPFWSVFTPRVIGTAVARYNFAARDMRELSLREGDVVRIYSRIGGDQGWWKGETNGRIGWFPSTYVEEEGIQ

Regarding Vav2 (from UniProt P52735), the Kd is 8.3 nM.
